Molecular target: human IL‐4Rα (human, UniProt P24394, N‐glycosylation sites (modelled in the crystal structure; positions not given))
Experiment: cell-based or functional assay

B1: dAb1 (VHH)
VHH: QVQLVESGGGLVQPGGSLRLSCAASGDFYCMAWFRQAPGKEREAVAAIRSGGRSTYYADSVKGRFTISRDNSKNTLYLQMNSLKAEDTAVYYCAVGVDGNCRNYWGQGTLVTVSS
  IC50 in the IL‐4‐induced TF‐1 cell proliferation assay (blocks IL‐4 with IL‐4Rα): ~0.15 nM
  IC50 in the IL‐13‐induced TF‐1 cell proliferation assay (blocks IL‐13 with IL‐4Rα): ~0.15 nM

Source: article PMC11381654, “Structural insight into interleukin‐4Rα and interleukin‐5 inhibition by nanobodies from a bispecific antibody” (MedComm, 2020)
